Source: publication PMC3902945 (Nucleic Acids Research, 2013)

T1: C-terminal His6-tagged SAUDG (S. aureus uracil-DNA glycosylase) (S. aureus, UniProt Q6GJ88 1-218)
T1 sequence (looked up): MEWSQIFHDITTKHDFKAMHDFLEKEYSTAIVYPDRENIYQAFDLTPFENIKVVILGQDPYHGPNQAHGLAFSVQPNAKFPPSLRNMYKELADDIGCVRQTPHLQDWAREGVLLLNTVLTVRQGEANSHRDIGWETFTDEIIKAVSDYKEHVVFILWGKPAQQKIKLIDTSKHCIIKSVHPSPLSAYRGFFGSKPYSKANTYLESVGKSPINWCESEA


Assays:
Experiment in all cases: SPR
[1] = target: C-terminal His6-tagged human UDG (uracil-DNA glycosylase) (human)
[2] = target: C-terminal His6-tagged SAUDG (S. aureus uracil-DNA glycosylase) (S. aureus) (UniProt Q6GJ88)
[3] = target: T1, C-terminal His6-tagged SAUDG (S. aureus …)

Molecule | Kd [1] | koff [1] | kon [1] | Kd [2] | koff [2] | kon [2] | Kd [3] | koff [3] | kon [3]
uracil-DNA glycosylase inhibitor from phage PBS2 (UGI) (from UniProt P14739 1-84) (natural protein) | 0.189 nM | 0.00119 s⁻¹ | 6.32e+06 M⁻¹ s⁻¹ | – | – | – | – | – | –
tag-free SAUGI (Staphylococcus aureus uracil-DNA glycosylase inhibitor) (natural protein) | 2.51 nM | 0.00124 s⁻¹ | 496000 M⁻¹ s⁻¹ | 1.2 nM | 0.00296 s⁻¹ | 2.47e+06 M⁻¹ s⁻¹ | – | – | –
uracil-DNA glycosylase inhibitor from phage PBS2 (UGI) (natural protein) MTNLSDIIEKETGKQLVIQESILMLPEEVEEVIGNKPESDILVHTAYDESTDENVMLLTSDAPEYKPWALVIQDSNGENKIKML | – | – | – | – | – | – | 0.685 ± 0.08 nM | 0.0061 ± 0.00068 s⁻¹ | 8.9e+06 ± 419000 M⁻¹ s⁻¹
